The chains are these.
B1: glmS ribozyme (parent)
chain: AUAAAAGCGCCAGAACUACAGAAAUGUAGUUGACGAGGAGGAGGUUUAUCGAAUUUUCGGCGGAUGCCUCCAAA

What all share (conditions): with glucosamine-6-phosphate
Variants of B1 are the subject of data set [1]. Nature of the data set: self-cleavage kobs at 40 uM GlcN6P; higher = faster cleavage; RNA array. In outline:
(§1)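 E. coli RNA polymerase transcribed barcoded ribozyme variants in situ on sequenced MiSeq chips, which were tracked via a hybridised Cy3 probe at 37 °C. Tiles were imaged over ~14 h after glucosamine-6-phosphate (40 μM to 10 mM) in HEPES/KCl/Mg(OAc)2 buffer was flowed in. Normalised per-tile medians were fit to one- or two-exponential decays for kobs, and kcat and KM came from weighted Michaelis–Menten fits.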

Data set [2] covers variants of B1. In words: self-cleavage kobs at 160 uM GlcN6P; higher = faster cleavage; RNA array. In outline: as §1
The variants in data set [3] derive from B1. Nature of the data set: self-cleavage kobs at 640 uM GlcN6P; higher = faster cleavage; RNA array. The essentials: as §1
Data set [4] covers variants of B1. Nature of the data set: self-cleavage kobs at 2500 uM GlcN6P; higher = faster cleavage; RNA array. The essentials:
as §1

Data set [5] covers variants of B1. Nature of the data set: self-cleavage kobs at 10000 uM GlcN6P; higher = faster cleavage; RNA array. The essentials: as §1

± gives the standard error. Fewer inactive variants are shown than the library holds. Some results are limits rather than exact numbers.

G43C C58A: the “self-cleavage kobs at 40 uM GlcN6P” value in the data set with glucosamine-6-phosphate [1] is below 1e-05 s⁻¹. Further, in the data set with glucosamine-6-phosphate [2], the “self-cleavage kobs at 160 uM GlcN6P” value is below 1e-05 s⁻¹. For the same variant, in the data set with glucosamine-6-phosphate [3], the “self-cleavage kobs at 640 uM GlcN6P” value is below 1e-05 s⁻¹. Besides, in the data set with glucosamine-6-phosphate [4], the “self-cleavage kobs at 2500 uM GlcN6P” value is below 1e-05 s⁻¹. Besides, the “self-cleavage kobs at 10000 uM GlcN6P” value in the data set with glucosamine-6-phosphate [5] is below 1e-05 s⁻¹.
With A52U G59A, the “self-cleavage kobs at 40 uM GlcN6P” value with glucosamine-6-phosphate [1] was below 1e-05 s⁻¹. Besides, the “self-cleavage kobs at 160 uM GlcN6P” value with glucosamine-6-phosphate [2] is below 1e-05 s⁻¹. Moreover, the “self-cleavage kobs at 640 uM GlcN6P” value with glucosamine-6-phosphate [3] is below 1e-05 s⁻¹. The “self-cleavage kobs at 2500 uM GlcN6P” value in the data set with glucosamine-6-phosphate [4] was below 1e-05 s⁻¹. For the same variant, in the data set with glucosamine-6-phosphate [5], the “self-cleavage kobs at 10000 uM GlcN6P” value is below 1e-05 s⁻¹.
On to C8A A15G G60A, for which, in the data set with glucosamine-6-phosphate [1], the “self-cleavage kobs at 40 uM GlcN6P” value is below 1e-05 s⁻¹. For the same variant, the “self-cleavage kobs at 640 uM GlcN6P” value in the data set with glucosamine-6-phosphate [3] is below 1e-05 s⁻¹. In the data set with glucosamine-6-phosphate [4], the “self-cleavage kobs at 2500 uM GlcN6P” value was below 1e-05 s⁻¹.
On to A14U U69C, for which the “self-cleavage kobs at 40 uM GlcN6P” value in the data set with glucosamine-6-phosphate [1] came out at 0.000126 ± 2.3e-05 s⁻¹. In addition, the “self-cleavage kobs at 160 uM GlcN6P” value with glucosamine-6-phosphate [2] is 0.000147 ± 2.2e-05 s⁻¹. The “self-cleavage kobs at 640 uM GlcN6P” value in the data set with glucosamine-6-phosphate [3] was 0.000362 ± 4.8e-05 s⁻¹. Further, the “self-cleavage kobs at 2500 uM GlcN6P” value with glucosamine-6-phosphate [4] came out at 0.000501 ± 0.00015 s⁻¹. In addition, in the data set with glucosamine-6-phosphate [5], the “self-cleavage kobs at 10000 uM GlcN6P” value stood at 0.00132 ± 0.00026 s⁻¹.
The like results for G7C A15U G59C were, in that order, below 1e-05 s⁻¹, below 1e-05 s⁻¹, below 1e-05 s⁻¹, below 1e-05 s⁻¹ and below 1e-05 s⁻¹.
Take A36G C61A: in the data set with glucosamine-6-phosphate [1], the “self-cleavage kobs at 40 uM GlcN6P” value is below 1e-05 s⁻¹. In addition, in the data set with glucosamine-6-phosphate [3], the “self-cleavage kobs at 640 uM GlcN6P” value was below 1e-05 s⁻¹. Also, the “self-cleavage kobs at 10000 uM GlcN6P” value with glucosamine-6-phosphate [5] was below 1e-05 s⁻¹.
As to G9A A36C U49C, the “self-cleavage kobs at 40 uM GlcN6P” value with glucosamine-6-phosphate [1] is below 1e-05 s⁻¹. Moreover, in the data set with glucosamine-6-phosphate [4], the “self-cleavage kobs at 2500 uM GlcN6P” value was below 1e-05 s⁻¹. In addition, in the data set with glucosamine-6-phosphate [5], the “self-cleavage kobs at 10000 uM GlcN6P” value is below 1e-05 s⁻¹.
Regarding A12U A15G G41A, the “self-cleavage kobs at 160 uM GlcN6P” value in the data set with glucosamine-6-phosphate [2] was 0.000272 ± 4.5e-05 s⁻¹. Besides, in the data set with glucosamine-6-phosphate [3], the “self-cleavage kobs at 640 uM GlcN6P” value was 0.00098 ± 0.00018 s⁻¹.
In the case of G9U G37A, the “self-cleavage kobs at 40 uM GlcN6P” value with glucosamine-6-phosphate [1] was below 1e-05 s⁻¹. In addition, in the data set with glucosamine-6-phosphate [2], the “self-cleavage kobs at 160 uM GlcN6P” value is below 1e-05 s⁻¹. Moreover, the “self-cleavage kobs at 2500 uM GlcN6P” value with glucosamine-6-phosphate [4] was below 1e-05 s⁻¹.
C11A C50A C68G: in the data set with glucosamine-6-phosphate [1], the “self-cleavage kobs at 40 uM GlcN6P” value is 5.45e-05 ± 1.8e-05 s⁻¹. In the data set with glucosamine-6-phosphate [2], the “self-cleavage kobs at 160 uM GlcN6P” value stood at 0.000352 ± 0.0001 s⁻¹. Besides, the “self-cleavage kobs at 640 uM GlcN6P” value with glucosamine-6-phosphate [3] came to 0.000154 ± 5.6e-05 s⁻¹. Also, the “self-cleavage kobs at 2500 uM GlcN6P” value with glucosamine-6-phosphate [4] amounted to 6.2e-05 ± 2.5e-05 s⁻¹. Also, in the data set with glucosamine-6-phosphate [5], the “self-cleavage kobs at 10000 uM GlcN6P” value is 3.73e-05 ± 1.7e-05 s⁻¹.
For G13U A14C G32A U46C G63A C68U U69G C71U, the “self-cleavage kobs at 160 uM GlcN6P” value with glucosamine-6-phosphate [2] is below 1e-05 s⁻¹. Also, the “self-cleavage kobs at 640 uM GlcN6P” value in the data set with glucosamine-6-phosphate [3] is below 1e-05 s⁻¹.
Regarding G9C U31G U54C, the “self-cleavage kobs at 40 uM GlcN6P” value with glucosamine-6-phosphate [1] was below 1e-05 s⁻¹.
In the case of A12C G40C C61G, in the data set with glucosamine-6-phosphate [2], the “self-cleavage kobs at 160 uM GlcN6P” value is below 1e-05 s⁻¹. Further, the “self-cleavage kobs at 640 uM GlcN6P” value with glucosamine-6-phosphate [3] was below 1e-05 s⁻¹. The “self-cleavage kobs at 2500 uM GlcN6P” value with glucosamine-6-phosphate [4] was below 1e-05 s⁻¹. Further, in the data set with glucosamine-6-phosphate [5], the “self-cleavage kobs at 10000 uM GlcN6P” value was below 1e-05 s⁻¹.
As for U31G G43A C61A C68A, the “self-cleavage kobs at 40 uM GlcN6P” value with glucosamine-6-phosphate [1] is below 1e-05 s⁻¹. Besides, the “self-cleavage kobs at 160 uM GlcN6P” value with glucosamine-6-phosphate [2] is below 1e-05 s⁻¹. Besides, in the data set with glucosamine-6-phosphate [3], the “self-cleavage kobs at 640 uM GlcN6P” value was below 1e-05 s⁻¹. In addition, the “self-cleavage kobs at 2500 uM GlcN6P” value with glucosamine-6-phosphate [4] was below 1e-05 s⁻¹.
Regarding G7U G35U G38U G59C, the “self-cleavage kobs at 40 uM GlcN6P” value in the data set with glucosamine-6-phosphate [1] was below 1e-05 s⁻¹. Also, in the data set with glucosamine-6-phosphate [5], the “self-cleavage kobs at 10000 uM GlcN6P” value is below 1e-05 s⁻¹.
On to A33U U49C, for which the “self-cleavage kobs at 40 uM GlcN6P” value in the data set with glucosamine-6-phosphate [1] is below 1e-05 s⁻¹. The “self-cleavage kobs at 160 uM GlcN6P” value in the data set with glucosamine-6-phosphate [2] is below 1e-05 s⁻¹. Further, the “self-cleavage kobs at 640 uM GlcN6P” value in the data set with glucosamine-6-phosphate [3] was below 1e-05 s⁻¹. The “self-cleavage kobs at 10000 uM GlcN6P” value with glucosamine-6-phosphate [5] is below 1e-05 s⁻¹.
Regarding C10G G43A G62U, in the data set with glucosamine-6-phosphate [1], the “self-cleavage kobs at 40 uM GlcN6P” value was below 1e-05 s⁻¹. The “self-cleavage kobs at 640 uM GlcN6P” value in the data set with glucosamine-6-phosphate [3] was below 1e-05 s⁻¹.
For the variant C50G G62U G66C C70A, in the data set with glucosamine-6-phosphate [2], the “self-cleavage kobs at 160 uM GlcN6P” value came to 7.6e-05 ± 1.6e-05 s⁻¹. The “self-cleavage kobs at 640 uM GlcN6P” value with glucosamine-6-phosphate [3] was determined as 0.000118 ± 2.5e-05 s⁻¹.
Turning to G44C A64U, in the data set with glucosamine-6-phosphate [2], the “self-cleavage kobs at 160 uM GlcN6P” value is below 1e-05 s⁻¹. For the same variant, the “self-cleavage kobs at 2500 uM GlcN6P” value with glucosamine-6-phosphate [4] was below 1e-05 s⁻¹.
As to G29A U46A A53U U56C, the “self-cleavage kobs at 160 uM GlcN6P” value with glucosamine-6-phosphate [2] was below 1e-05 s⁻¹. Besides, the “self-cleavage kobs at 640 uM GlcN6P” value with glucosamine-6-phosphate [3] is below 1e-05 s⁻¹.

The values above are taken from the supplement of paper PMC7125110.
